In doi:10.1101/2025.11.15.688632:

Target: pseudo wild-type full-length CREB (unlabelled) (UniProt P16220)
Experiment: SEC-MALS

Substance “pseudo wild-type full-length CREB (unlabelled) (from UniProt P16220-2 1-327) (natural protein)” has a stoichiometry N of 2.
